Source: the supplement of paper PMC11316812
± gives the standard deviation of the averaged measurements.

Tests used:
[1] = system: MCF7; assay: percentage of EdU-negative (G0-arrested) nuclei per well, 72 h; higher = more G0 arrest; conditions: reference: sequence is the full UniProt precursor, the tested protein was the secreted form or ectodomain
[2] = system: hTERT-HMEC; assay: as above; conditions: reference: sequence is the full UniProt precursor, the tested protein was the secreted form or ectodomain
[3] = protein concentration 0.0225 µM
[4] = protein concentration 0.0357143 µM
[5] = protein concentration 0.357143 µM
[6] = protein concentration 0.03125 µM
[7] = protein concentration 0.3125 µM
[8] = protein concentration 0.017475 µM
[9] = protein concentration 0.17475 µM
[10] = protein concentration 0.0257143 µM
[11] = protein concentration 0.257143 µM
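Further: secreted proteins added to cultured cells, EdU pulse at the end, nuclei found by Hoechst imaging, EdU status from nuclear versus surrounding ring intensity ratio, PBS as neutral control.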

Sequence | percentage of EdU-negative [1, 3] [%] | percentage of EdU-negative ([1]; protein concentration 0.225 µM) [%] | percentage of EdU-negative [2, 3] [%] | percentage of EdU-negative ([2]; protein concentration 0.225 µM) [%] | other results
MLLLLLPLLWGRERAEGQTSKLLTMQSSVTVQEGLCVHVPCSFSYPSHGWIYPGPVVHGYWFREGANTDQDAPVATNNPARAVWEETRDRFHLLGDPHTKNCTLSIRDARRSDAGRYFFRMEKGSIKWNYKHHRLSVNVTALTHRPNILIPGTLESGCPQNLTCSVPWACEQGTPPMISWIGTSVSPLDPSTTRSSVLTLIPQPQDHGTSLTCQVTFPGASVTTNKTVHLNVSYPPQNLTMTVFQGDGTVSTVLGNGSSLSLPEGQSLRLVCAVDAVDSNPPARLSLSWRGLTLCPSQPSNPGVLELPWVHLRDAAEFTCRAQNPLGSQQVYLNVSLQSKATSGVTQGVVGGAGATALVFLSFCVIFVVVRSCRKKSARPAAGVGDTGIEDANAVRGSASQGPLTEPWAEDSPPDQPPPASARSSVGEGELQYASLSFQMVKPWDSRGQEATDTEYSEIKIHR [Q9Y336] | 26.3 ± 0.23 | 30.4 ± 0.4 | 5.01 ± 0.61 | 4.21 ± 0.26 | –
MASVVLPSGSQCAAAAAAAAPPGLRLRLLLLLFSAAALIPTGDGQNLFTKDVTVIEGEVATISCQVNKSDDSVIQLLNPNRQTIYFRDFRPLKDSRFQLLNFSSSELKVSLTNVSISDEGRYFCQLYTDPPQESYTTITVLVPPRNLMIDIQKDTAVEGEEIEVNCTAMASKPATTIRWFKGNTELKGKSEVEEWSDMYTVTSQLMLKVHKEDDGVPVICQVEHPAVTGNLQTQRYLEVQYKPQVHIQMTYPLQGLTREGDALELTCEAIGKPQPVMVTWVRVDDEMPQHAVLSGPNLFINNLNKTDNGTYRCEASNIVGKAHSDYMLYVYDPPTTIPPPTTTTTTTTTTTTTILTIITDSRAGEEGSIRAVDHAVIGGVVAVVVFAMLCLLIILGRYFARHKGTYFTHEAKGADDAADADTAIINAEGGQNNSEEKKEYFI [Q9BY67] | 24.5 ± 1.3 | 24.7 ± 1.1 | 4.74 ± 0.29 | 5.2 ± 0.79 | –
MISPFLVLAIGTCLTNSLVPEKEKDPKYWRDQAQETLKYALELQKLNTNVAKNVIMFLGDGMGVSTVTAARILKGQLHHNPGEETRLEMDKFPFVALSKTYNTNAQVPDSAGTATAYLCGVKANEGTVGVSAATERSRCNTTQGNEVTSILRWAKDAGKSVGIVTTTRVNHATPSAAYAHSADRDWYSDNEMPPEALSQGCKDIAYQLMHNIRDIDVIMGGGRKYMYPKNKTDVEYESDEKARGTRLDGLDLVDTWKSFKPRYKHSHFIWNRTELLTLDPHNVDYLLGLFEPGDMQYELNRNNVTDPSLSEMVVVAIQILRKNPKGFFLLVEGGRIDHGHHEGKAKQALHEAVEMDRAIGQAGSLTSSEDTLTVVTADHSHVFTFGGYTPRGNSIFGLAPMLSDTDKKPFTAILYGNGPGYKVVGGERENVSMVDYAHNNYQAQSAVPLRHETHGGEDVAVFSKGPMAHLLHGVHEQNYVPHVMAYAACIGANLGHCAPASSAGSLAAGPLLLALALYPLSVLF | 26.1 ± 0.93 | 24.1 ± 2.4 | 4.55 ± 0.2 | 4.93 ± 0.7 | –
MARILLLFLPGLVAVCAVHGIFMDRLASKKLCADDECVYTISLASAQEDYNAPDCRFINVKKGQQIYVYSKLVKENGAGEFWAGSVYGDGQDEMGVVGYFPRNLVKEQRVYQEATKEVPTTDIDFFCE [Q9NRC9] | – | – | – | – | percentage of EdU-negative [1, 4]: 24.18 ± 0.24%; percentage of EdU-negative [1, 5]: 27 ± 3.7%; percentage of EdU-negative [2, 4]: 5.05 ± 0.39%; percentage of EdU-negative [2, 5]: 5.74 ± 0.68%
MASRWAVQLLLVAAWSMGCGEALKCYTCKEPMTSASCRTITRCKPEDTACMTTLVTVEAEYPFNQSPVVTRSCSSSCVATDPDSIGAAHLIFCCFRDLCNSEL | 23.5 ± 2.8 | 26.6 ± 1.9 | 5.43 ± 0.94 | 5.61 ± 1 | –
MESRGPLATSRLLLLLLLLLLRHTRQGWALRPVLPTQSAHDPPAVHLSNGPGQEPIAVMTFDLTKITKTSSSFEVRTWDPEGVIFYGDTNPKDDWFMLGLRDGRPEIQLHNHWAQLTVGAGPRLDDGRWHQVEVKMEGDSVLLEVDGEEVLRLRQVSGPLTSKRHPIMRIALGGLLFPASNLRLPLVPALDGCLRRDSWLDKQAEISASAPTSLRSCDVESNPGIFLPPGTQAEFNLRDIPQPHAEPWAFSLDLGLKQAAGSGHLLALGTPENPSWLSLHLQDQKVVLSSGSGPGLDLPLVLGLPLQLKLSMSRVVLSQGSKMKALALPPLGLAPLLNLWAKPQGRLFLGALPGEDSSTSFCLNGLWAQGQRLDVDQALNRSHEIWTHSCPQSPGNGTDASH | – | – | – | – | percentage of EdU-negative [1, 6]: 21.8 ± 3%; percentage of EdU-negative [1, 7]: 23.55 ± 0.15%; percentage of EdU-negative [2, 6]: 4.94 ± 0.58%; percentage of EdU-negative [2, 7]: 17.6 ± 1.6%
MRRLLLVTSLVVVLLWEAGAVPAPKVPIKMQVKHWPSEQDPEKAWGARVVEPPEKDDQLVVLFPVQKPKLLTTEEKPRGQGRGPILPGTKAWMETEDTLGHVLSPEPDHDSLYHPPPEEDQGEERPRLWVMPNHQVLLGPEEDQDHIYHPQ [Q96NZ9] | – | – | – | – | percentage of EdU-negative ([1]; protein concentration 0.013 µM): 23.14 ± 0.14%; percentage of EdU-negative ([1]; protein concentration 0.13 µM): 27.38 ± 0.25%; percentage of EdU-negative ([2]; protein concentration 0.013 µM): 4.69 ± 0.15%; percentage of EdU-negative ([2]; protein concentration 0.13 µM): 5.48 ± 0.53%
MEWPARLCGLWALLLCAGGGGGGGGAAPTETQPPVTNLSVSVENLCTVIWTWNPPEGASSNCSLWYFSHFGDKQDKKIAPETRRSIEVPLNERICLQVGSQCSTNESEKPSILVEKCISPPEGDPESAVTELQCIWHNLSYMKCSWLPGRNTSPDTNYTLYYWHRSLEKIHQCENIFREGQYFGCSFDLTKVKDSSFEQHSVQIMVKDNAGKIKPSFNIVPLTSRVKPDPPHIKNLSFHNDDLYVQWENPQNFISRCLFYEVEVNNSQTETHNVFYVQEAKCENPEFERNVENTSCFMVPGVLPDTLNTVRIRVKTNKLCYEDDKLWSNWSQEMSIGKKRNSTLYITMLLIVPVIVAGAIIVLLLYLKRLKIIIFPPIPDPGKIFKEMFGDQNDDTLHWKKYDIYEKQTKEETDSVVLIENLKKASQ | – | – | – | – | percentage of EdU-negative [1, 8]: 26.4 ± 0.86%; percentage of EdU-negative [1, 9]: 26.6 ± 2%; percentage of EdU-negative [2, 8]: 5.5 ± 0.74%; percentage of EdU-negative [2, 9]: 5.19 ± 0.27%
MKALIAALLLITLQYSCAVSPTDCSAVEPEAEKALDLINKRRRDGYLFQLLRIADAHLDRVENTTVYYLVLDVQESDCSVLSRKYWNDCEPPDSRRPSEIVIGQCKVIATRHSHESQDLRVIDFNCTTSSVSSALANTKDSPVLIDFFEDTERYRKQANKALEKYKEENDDFASFRVDRIERVARVRGGEGTGYFVDFSVRNCPRHHFPRHPNVFGFCRADLFYDVEALDLESPKNLVINCEVFDPQEHENINGVPPHLGHPFHWGGHERSSTTKPPFKPHGSRDHHHPHKPHEHGPPPPPDERDHSHGPPLPQGPPPLLPMSCSSCQHATFGTNGAQRHSHNNNSSDLHPHKHHSHEQHPHGHHPHAHHPHEHDTHRQHPHGHHPHGHHPHGHHPHGHHPHGHHPHCHDFQDYGPCDPPPHNQGHCCHGHGPPPGHLRRRGPGKGPRPFHCRQIGSVYRLPPLRKGEVLPLPEANFPSFPLPHHKHPLKPDNQPFPQSVSESCPGKFKSGFPQVSMFFTHTFPK | – | – | – | – | percentage of EdU-negative [1, 6]: 26 ± 1.3%; percentage of EdU-negative [1, 7]: 25.5 ± 0.58%; percentage of EdU-negative [2, 6]: 4.57 ± 0.34%; percentage of EdU-negative [2, 7]: 4.52 ± 0.3%
MLPPMALPSVSWMLLSCLILLCQVQGEETQKELPSPRISCPKGSKAYGSPCYALFLSPKSWMDADLACQKRPSGKLVSVLSGAEGSFVSSLVRSISNSYSYIWIGLHDPTQGSEPDGDGWEWSSTDVMNYFAWEKNPSTILNPGHCGSLSRSTGFLKWKDYNCDAKLPYVCKFKD [Q6UW15] | 25.43 ± 0.028 | 26.8 ± 1.6 | 4.59 ± 0.17 | 5.21 ± 0.13 | –
MSSAARSRLTRATRQEMLFLALLLLPVVVAFARAEAEEDGDLQCLCVKTTSQVRPRHITSLEVIKAGPHCPTAQLIATLKNGRKICLDLQALLYKKIIKEHLES | 25.1 ± 0.73 | 24.9 ± 0.32 | 5.03 ± 0.052 | 5.8 ± 0.41 | –
MLCLGWIFLWLVAGERIKGFNISGCSTKKLLWTYSTRSEEEFVLFCDLPEPQKSHFCHRNRLSPKQVPEHLPFMGSNDLSDVQWYQQPSNGDPLEDIRKSYPHIIQDKCTLHFLTPGVNNSGSYICRPKMIKSPYDVACCVKMILEVKPQTNASCEYSASHKQDLLLGSTGSISCPSLSCQSDAQSPAVTWYKNGKLLSVERSNRIVVDEVYDYHQGTYVCDYTQSDTVSSWTVRAVVQVRTIVGDTKLKPDILDPVEDTLEVELGKPLTISCKARFGFERVFNPVIKWYIKDSDLEWEVSVPEAKSIKSTLKDEIIERNIILEKVTQRDLRRKFVCFVQNSIGNTTQSVQLKEKRGVVLLYILLGTIGTLVAVLAASALLYRHWIEIVLLYRTYQSKDQTLGDKKDFDAFVSYAKWSSFPSEATSSLSEEHLALSLFPDVLENKYGYSLCLLERDVAPGGVYAEDIVSIIKRSRRGIFILSPNYVNGPSIFELQAAVNLALDDQTLKLILIKFCYFQEPESLPHLVKKALRVLPTVTWRGLKSVPPNSRFWAKMRYHMPVKNSQGFTWNQLRITSRIFQWKGLSRTETTGRSSQPKEW | 26.2 ± 0.97 | 24.78 ± 0.22 | 5.27 ± 0.17 | 4.77 ± 0.22 | –
MYRHGISSQRSWPLWTTIFIFLGVAAILGVTIGLLVHFLAVEKTYYYQGDFHISGVTYNDNCENAASQASTNLSKDIETKMLNAFQNSSIYKEYVKSEVIKLLPNANGSNVQLQLKFKFPPAEGVSMRTKIKAKLHQMLKNNMASWNAVPASIKLMEISKAASEMLTNNCCGRQVANSIITGNKIVNGKSSLEGAWPWQASMQWKGRHYCGASLISSRWLLSAAHCFAKKNNSKDWTVNFGIVVNKPYMTRKVQNIIFHENYSSPGLHDDIALVQLAEEVSFTEYIRKICLPEAKMKLSENDNVVVTGWGTLYMNGSFPVILQEDFLKIIDNKICNASYAYSGFVTDTMLCAGFMSGEADACQNDSGGPLAYPDSRNIWHLVGIVSWGDGCGKKNKPGVYTRVTSYRNWITSKTGL [Q86T26] | – | – | – | – | percentage of EdU-negative [1, 10]: 23.6 ± 1.4%; percentage of EdU-negative [1, 11]: 25.2 ± 1.9%; percentage of EdU-negative [2, 10]: 5.22 ± 1.8%; percentage of EdU-negative [2, 11]: 5.69 ± 1%
